Experiment: soluble on expression in E. coli; label from the status in PepcDB or PDB records

Row | Sequence | soluble on expression in E. coli
1 | MSLETSDAPHSSLVGNSVFVTHPDLKRLFQMAVSKSVREILIPAVEKAANMAVQSTVNIVLKDFATEVDEQKLKTAAINMVQYLAQNVAHSISVPLLKDTIRNTTQSLTPNLINMTNSPIAELNTAIDDNIAIAVSPIEKAAVERAIQEVNEKLVQAVAVRRYHLERRSDQPFVAQNINRFSLNLPDPLGLKPTGVTREQFSLYEQFPASMPSDSSRSPLETILAQEGHHHHHH | soluble
2 | MDAENEDFDGAEDSDHTDNDKKEDELSLDNVLRLGGTKADYVMLAGISDTTELINGGKKVIIDDLEEGELEDFIKQLGIRAYADQQIIQDEEDPASSEPTQKEGKKAKGSKVKEDAAPNVKNKVTPSTQATKTSVQSTNLANATGKKAKQKPANLFEFIPRQFLLIKPGGKWFDIEYTSEGTSVAQNESLTCQYKALAQKLYENETALYKSKKSLQKGANSAWMKTRKLRTFSQHPFEELEEKSSGNKDTRDRRLILWYFEHQLKLQIADFVVTLDELAHDMVEATKMRALTTAYELLCNQPEQEKLLLVQIVNKLEDA | soluble
3 | MCAVLGDNSVSYNTMKFWFEKIKKKNYDLDDKPRSGRPRLDIDEDISRALEDDPRSMSREISATLKRPHTTIINHLHESGRVPKFGQLVPHNLSDSQKNLRCDLSLSLLTRKRTTDWVKDITTGDEKWVLYVNHTRKKQWVPVEEHAEPDLKGELHEKKVLLSIWWDSMGVIFRELLPDGATINADLYCIQLEKVVHAHQLHRPRGSKLLLLHDNARPHTALKTRQKLQTLGIEVLPHPPYSPDLAPTDYHLFRSLQNHLAGQKFHDRKAVETWLDDFFASKSQEFYAEGIAQLPLRWQEVIDTNGEYITH | not soluble
4 | MSLQPILQLLEKDEQREALHYFIEKLPQLKEATESMEEKITFIQHVMNDKQTLESLFAEWEAKAAPFRLTSEHFEAIATLIQLLPTLVQWLQKAEEFVSFVTSVMNDRESMAYLTKGIKDIVPIGKGLDILKETNERFACERDSTTVSLLRIYRLLKHPIVQDGVKYIETLLDVASKHK | not soluble
5 | MADFAARLNKLFDTVHPPGRKPHTNAEVAAALIADGHQISKPYISQLRSGQRTNPSDETVAAFARFFKVKPDYFFNDIYAAKIDHDLELLSQLQGYGLRKLSSRAFDLSEESQNLLTTMAEKLRASEGLPEVPPDASR | not soluble
6 | MKVFLIGANGQIGQRLVSLFQDNPDHSIRAMVRKEEQKASLEAAGAEAVLANLEGSPEEIAAAAKGCDAIIFTAGSGGSTGYDKTLLVDLDGAAKAIEAAAIAGIKRFIMVSALQAHNRENWNEALKPYYVAKHYADKILEASGLTYTIIRPG | not soluble
7 | MGSDKIHHHHHHMKEILTVTELNSYIANLLDSDPFLGQLWLRGEISGFRLYQQSGHMYFTLKDEDSTISAVMFKSRARGLKFKPKDGMEVLLRASVSVFARQGKYQLYVEEMQPYGIGGLFLYLEELKKKLAAKGYFAPERKKAIPAFVQRVGIVTSQDGAALRDICRILKQRHPGVEVVLAHSSVQGSEAPGELAEGLRLLNSYAEVELIIIGRGGGSYEDLMAFNSELVVQAIYESNIPVISAVGHEVDFTLADLVADLRAATPSQAASLAVADMQALSRQLDNYQQRLLRAMQRKLLYYTEIIDRLMMKRIWKQPRSLLHMREELLSQLEKSLSRGMAEIFREKKMKLSMNMAALDSLSPLKIMERGYVLLQKEGRIIRDEQQVQIGDRLEVAMRHADLEIEVIKKERVKRWKS | not soluble
8 | MGSDKIHHHHHHMSFDAMNTTLSLNTSAGSQALTVRDPWALVPSLGDLNAYIAAVNRLPMLTLEEEQSLGQRLRDEHDLEAAGRLVLSHLRLVVSVSRQYLGYGLPHGDLIQEGNVGLMKAVKRFDPSQGVRLVSYALHWIKAEIHEYVLRNWRMVKLATTKAQRKLFFNLRSMKQGFKGDATDSDLHRSTLTDAEIDIVASELKVKREEVIEMETRLSGGDVALDPQTDDGDESYAPIAYLADDRHEPTRVLDAQRRDALAGDGIGEALDVLDARSRRIVEERWLKVNDNGSGGMTLHELAAEYGVSAERIRQIEVAAMKKMRKALAAYA | not soluble
9 | MGSDKIHHHHHHAQDRAQQASELLDRLIAGQGDSVYVHLDDNIRKMLSVEMLNGLFKQLEQQAGKYQSHGEWNTEPINGMTVYYCDVKFERLPLRFLTAFNPDGKVNTIRFVPVPPEKTTPPTTSVQDKIKETDIQVCTGNFKLPGTLTLPKNGKDLPVVILVHGSGASDRDETVGANKPFRDLAYGLAERGIAVIRYDKRTKVYGADSAPAGKEITFDEESVDDALSAIKLARSIPTINPERIYILGHSLGGTLAPRIAQRSDKVPAGIILLAGAARPLEDLFISQVKFLASALPSTKDIEKEIAELQKQVDNVKRLGTDTFDITTPLPMNLSQAYWMLANQYKPLEVVRKLTLPILVLQGERDYQVTMQDFELWKSALAKHPNAIFKSYPRLNHLFQEGEGKSTPLEYSRPSSIPSYVTDDIAAFINRPKPGN | not soluble
10 | MGSDKIHHHHHHMLSVTRYSIKNVRLKPWVKFIWYFETKSNILLNNKLLPTDSIDIILNLSDVMEYKIENQDYTASNMHFNGIRDKHGFIIQHGNIRVIGISFYPFGLYPFLKIPISEFNRQIVDLEAVSQLFAKKLEESLNPIQSVEKIVLYLEEVLLSILEEDLISNKYVKLLNSFIYVNRYSNIKAFCDDTNINIKTLERICLKYTGYTPKILKRIYRFKMASNQLIYNYKDDELFDFIYENEYYDQAHFIKEFKKFSGTSPIKFSGENKTIKENIKYSYL | not soluble
11 | MAINLNTFAKVSADWYELKKSQPLAENTIKDIWRSLEKYVFPFIGTLPITQLTARHFISALEPIQASGKLETVKRVSQRINEVMDYAVNSGLIPANPAAKIRKAFQTPVKTHMLEHHHHHH | not soluble
12 | MSLCGIAGTLNSSCFSSKKLLAALAHRGPSGHGEFSHQGVNLFHARLSIQDLSPAGAQPMHRHHLSIVFNGEIYNHLELRAKVADYPFSTRSDTETILALFERFGERSLEWMDGMFALAILDQRTHKLFLARDRMGKKPLFYYQEGEEFLFASELNALLTLKPLQIDHAKLSAFLRCGFFPHDGAPYQGVQSLPQGSYAFIDLHHPRPLSPQRYFDLLSLYQAPKIEGFEASKEAVELALKESVKNRLESSDLEVGSFLSGGIDSSLITALASFFTPKLKTFTVAFEGAYDESSLAELVAKRYKTDHTTLHLNPSKLKEEVKGILACYGRPFMDSSAIPSYYVSQEAKKHLTVILNGDGADELFGGYRRYVPMSHGWLKLARPLSLLLPLLPLPKEKKSLYNYLHRLLAMSRKRGLDFYLSATIDSFEDAYAFSPNPHTQTLDQEITQILEDSSLSSLSKMLYLDSQNLLLSDLLPKMDIATMAHSLEGRSPFLGKSLLEVAPRIKDEYKIFGKSTKFILRELAKKYLPHALLEQPKRGFEVPLRAWVEGELKELIFDSLSKNCLSRELIESRFVDALLDKPQDFAPEKRAKMLWSLFSLEVWHEHYQKACEEGHHHHHH | soluble
13 | MLDGLVVGGGLAGLTAARVLTRAGRRVRVLEAAPEVGGRVRSRELEGFTLDAGFQVLFPAYPAVRRQLNLDALDLVPLPSAAALRRGAREDVLGSPLDDLASLPSTLKSGALTLGDKLRVARLAASLRTPAAHELLIGSDESTESFLRGQGFSEAALDHFFRPFFGGIFLRRDLATSARLFRYYFRMLMDGGAALPRRGMGELSRQLAQGSDLLTGVRVSRLLPRPGYVTAVTSAGEIDARQVIVATEAPTASDLTGEALSRGALSSTYLYYATPQRISGQHRLLLNAETGLINNAQWTSLAVPGRAPTGQHLLTVTVLGLPDLDDASLDARVRGELTRWYGAEAVGTLRLLMLERIPYAQFEQPAGYAATLPGHATSLPGVLLASEITSMSGIQGALESGEKAAAIVLGDLAALSRPRGALEHHHHHH | not soluble
14 | MVSQTERQHAIASLLAPTGAVSVGDLAEHFHVTTETVRRDLRIMESLGLLQRVHGGAISPEPMGTSPPRLKPALGKGMPPEPRVLELAETAVSLITPLARSIFLDSGLACTAIATVLGDPPEDARWTVVTSSPGAVIALSATDATSTVVLHGQVHGNCSSIIGSTAVDMISQLRADIAFVEVDAIQSDTSLCTFFPETIPIKQAMIKNAAFTVAVLSPRSPQDQELQLLKHPFSTLADFDALVTDDHTLDFPVLPDHNFQVVTPLEHHHHHH | soluble
15 | MQQLKKIGFNEYEAKSYVSLVKQGPVTAYQVSKDSGVPRARIYEILGNLVEKGIVMKEEINDTTRYSPLPVEIFLQKAQSEWQSTYEGISDSLKKLETSEEKTDNRVITLKDNQTIISYCQALIKKAERRIVISMWDEMYEALKEDLSEVTDKVTIQGITLHVENPIKNLEAHRITPYTETLSTEHWFIVSIDSKEMIYGPSLAERNIAFYTDDPVHIYLLEDYVWHDVLVNRLVRRNQDDLQQWITAERKSFFMGK | not soluble

Reference: the DeepSol protein solubility set
